Laboratory results: patent US9458437B2, “Neuroprotective peptides that inhibit interaction between palmitoyl acyl transferase zinc-finger DHHC type containing 17 (zD17) and c-jun N-terminal kinase (JNK)” (The University of British Columbia, priority 2011, dated 2016)

Assays:
[1] = target: T1, zD17-JNK2 interaction (Rattus norvegicus, UniProt P49186); experiment: co-immunoprecipitation of zD17 with JNK2 in neuronal cultures; assay type: cell-based; conditions: NMDA
T1 construct: endogenous in cells; host or cells: primary cortical neurons of embryonic Wistar rat
Procedure: All animal experiments were approved by the Animal Care Committee of the University of British Columbia. Primary cortical cultures were prepared from Wistar rat (UBC Animal Care Centre, Vancouver, BC, Canada) brains at embryonic days 18-19. Cultures were maintained in Neurobasal medium supplemented with B27 and 0.5 mM glutamax (Invitrogen™) as described previously (Yang et al., 2009).
(§1) The protocols for protein extraction have been described previously (Yang et al., 2009). For co-immunoprecipitation, cultured cells were washed with ice-cold PBS followed by incubation with 0.5 ml Gentle Lysis Buffer (GLB) containing 25 mM Tris-HCl (pH 7.4), 2 mM EDTA, 1 mM EGTA, 10 mM NaCl, 0.5% Triton X-100 and 10% Glycerol supplemented with the Complete Protease Inhibitor Tablets (Roche Applied Science™, Indianapolis, Ind., USA) and 1 mM PMSF. Total protein concentration was determined with the BioRad™ Protein Assay kit. Lysates were first precleaned by incubating with Protein A-Sepharose beads (Roche Applied Science™) for 1 h at 4° C., followed by incubation with indicated antibodies (>16 h at 4° C.) and protein A Sepharose bead (2 h at 4° C.). Lysates of rat brain tissues were precleaned with IgG and protein A-beads. Immunoprecipitates were washed three times with GLB buffer; boiled in 2× loading buffer with 1 mM dithiothreitol (DTT) for 3 min; and analyzed with SDS-PAGE as described previously (Yang et al., 2009). The relative intensities of the bands on immunoblots were analyzed and quantified using Image J™ (NIH).

[2] = tested on: middle cerebral artery occlusion (MCAo); experiment: transient MCAo in SD rats, neurological scores; assay type: in vivo, Sprague-Dawley rat
Procedure: Adult male Sprague-Dawley (SD) rats weighing 250-290 g were employed for transient middle cerebral artery occlusion. Rats were anaesthetized with 5% isofluorane and maintained with 2% isofluorane in 70% N2O and 30% O2 using a face mask. 5 mg/kg ketoprofen was given pre-surgery to block pain. Rectal temperature was maintained at 37° C. during surgery with a homeothermic blanket system (Harvard Apparatus™, Holliston, Mass.). The scalp was incised at the midline and the skull was exposed. The skull was thinned with a dental drill at a region ipsilateral to the expected ischemia zone (2 mm posterior and 5 mm lateral from the bregma). […]
Peptides were synthesized by PepMetric Technologies™ or GL Biochem™ (Shanghai, China). […] Injections of NIMoEscr and NIMoEsh were made, brain damage was assessed and functional evaluations performed in a double-blind manner To examine the delivery of the peptide into the brain, 5 mg/kg FITC-labelled NIMoE or only saline was intravenously injected 1 h before perfusion. […] After rapid freezing in Tissue-Tek™ embedding medium (Sakura™, Torrance, Calif.) on dry ice, 20 μm sections were cut on a cryostat (Leica™ CM3050, Ontario, Canada) and examined for FITC fluorescence by a laser microscopy (Zeiss™, Axiovert 200). […]

[3] = target: zD17-JNK3 interaction (Rattus norvegicus, UniProt P49187); experiment: zD17-JNK3 interaction in the injured hemisphere after MCAo; assay type: in vivo, Sprague-Dawley rat; parameters: Lysates of rat brain tissues were precleaned with IgG and protein A-beads; from tissue; host or cells: brain (injured left hemisphere) of adult male Sprague-Dawley rats; conditions: single intravenous injection 30 min before MCAo
Procedure: as §1, with “Lysates were first precleaned by incubating with Protein A-Sepharose beads (Roche Applied Science™) for 1 h at 4° C., followed by incubation with indicated antibodies (>16 h at 4° C.) and protein A Sepharose bead (2 h at 4° C.). Lysates of rat brain tissues were precleaned with IgG and protein A-beads.” left out, “(NIH). […]” for “(NIH).”
Peptides were synthesized by PepMetric Technologies™ or GL Biochem™ (Shanghai, China). […] Injections of NIMoEscr and NIMoEsh were made, brain damage was assessed and functional evaluations performed in a double-blind manner To examine the delivery of the peptide into the brain, 5 mg/kg FITC-labelled NIMoE or only saline was intravenously injected 1 h before perfusion. […]

zD17-JNK3 interaction, sequence (P49187 whole entry): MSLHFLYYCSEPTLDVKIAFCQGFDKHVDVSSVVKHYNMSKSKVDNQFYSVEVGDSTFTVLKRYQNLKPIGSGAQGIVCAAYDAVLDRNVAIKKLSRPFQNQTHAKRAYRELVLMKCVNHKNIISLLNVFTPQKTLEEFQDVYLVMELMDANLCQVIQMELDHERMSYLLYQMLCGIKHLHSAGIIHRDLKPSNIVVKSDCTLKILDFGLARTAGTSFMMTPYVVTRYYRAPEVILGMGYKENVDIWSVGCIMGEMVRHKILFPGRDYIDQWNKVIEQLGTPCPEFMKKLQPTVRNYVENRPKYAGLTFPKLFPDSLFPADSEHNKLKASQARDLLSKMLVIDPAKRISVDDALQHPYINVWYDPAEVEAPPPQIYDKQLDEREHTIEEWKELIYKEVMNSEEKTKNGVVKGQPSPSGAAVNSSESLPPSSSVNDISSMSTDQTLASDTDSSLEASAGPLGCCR

Row | Sequence | enhancement of the JNK2-zD17 interaction [1] | behavioural deficits evaluated with neurological scores ([2]; NIMoEsh administration, MCAo rats) | duration of improvement of behavioural performance ([2]; injected 2 h post-surgery, double-blinded) | enhancement of the zD17-JNK3 interaction after MCAo [3]
1 | MTPLMWAAYRTHSVDPTRLL (listed as Homo sapiens) [NIMoE, peptide comprising motif-E of zD17, fused to the cell-membrane transduction domain of HIV-1 Tat for cell experiments] | eliminated the enhancement | – | – | –
2 | WAAYRTHSVD (listed as Homo sapiens) [NIMoEsh, shorter 10mer of NIMoE, primarily the loop region of motif-E (zD17 196-205)] | – | substantially reduced | persisted over 14 days | effectively attenuated
